Data published in US8226967B2, “Surface active proteins as excipients in solid pharmaceutical formulations” (BASF SE, priority 2008, dated 2012).

Experiments:
Type in all cases: physicochemical
[1] = Dissolution test of Traumeel S tablets coated with alginate/hydrophobin biopolymer; conditions: Traumeel S tablets coated with 2% alginate containing 200 μg/ml protein, 0.1 M HCl pH 1, ambient temperature, FIG. 5A
Method: Homeopathic Traumeel®S tablets (Heel GmbH, Baden Baden, Germany) are used for coating experiments. These tablets are highly soluble and are formulated based on lactose monohydrate and magnesium stearate. […] Tablets are then immersed immediately into a solution of 0.1 M CaCl2 and dried at room temperature. For the dissolution test, tablets are immersed in 50 ml 0.1 M HCl at room temperature.
Traumeel® S (Heel) tablets are coated with hydrophobin, and resistance to acidic conditions of pH 1.0 is tested in a dissolution assay. Traumeel® S tablets are submersed in a solution of 2% alginate, containing 200 μg/ml TT, PO, TR or SC, respectively. […] After short submersion, alginate-coated tablets are allowed to polymerise in 0.1M CaCl2 and dried over night at ambient temperature.
The incubation for the dissolution test is at ambient temperature in 0.1M HCl for 10 to 120 min. Results: The coating of tablets with a biopolymer consisting of alginate with an admixture of hydrophobin yields beneficial properties regarding sustained release of a pharmaceutical composition.

[2] = Dissolution of gelatine films with or without hydrophobin; conditions: gelatine with 200 μg/ml hydrophobin
Method: Gelatine (stained red, purchased from RUF, Quakenbrück, Germany) is solubilized in water or a SC-solution (final concentration 200 μg/ml). 500 μl solubilized gelatine is added per well of a 6-well macroplate. Gelatine is dried over night at 50° C. Then 500 μl H2O, 0.1 N HCl or 0.1 N HCl with 0.4 U/ml pepsin, respectively, are added to the wells.

[3] = Release of indicator dye from gelatine capsules coated by spraying with hydrophobin; conditions: for release of dye from capsules (retention of dye within the capsule): gelatine capsules sprayed with 200 μg/ml hydrophobin in water, 0.1 M HCl pH 1.0, interval of observation 2 hours, FIG. 1A
Source text: (§1) For setting up the leakage experiments, gelatine capsules with a volume of 0.68 cm^3 (Capsulae operculatae Nr. 0, Pharmapol GmbH, D-25578 Dageling) are filled with the indicator dye bromo phenol blue. The capsules are filled with equal weight proportions of mannitol, sodium hydrogen carbonate, trisodium citrate dehydrogenate and water-soluble bromo phenol blue and closed by joining the upper and lower part of the capsule tightly. To avoid unspecific leakage from the capsule, the joint is sealed.
The filled and sealed capsules are sprayed using a commercially available nebuliser with a solution of 200 μg/ml SC in water.
(§2) For testing the release of dye from the capsules after different surface treatments, the capsules are submerged in 50 ml 0.1 M HCl corresponding to a pH of 1.0 in order to mimic the acidic environment in the stomach. In a second setup, 0.4 U/ml pepsin are added to the 0.1 M HCl to test for resistance to a typical enzyme in the stomach juice. Quantification of the release is accomplished by computer aided optical evaluation of different areas of the solution in the immersion bath leading to arbitrary luminance units.
The release of dye from capsules coated by spraying with hydrophobins or as a control with water, respectively, is assayed in an acidic environment to mimic stomach conditions. The amount of dye contained in the immersion bath is measured by optical evaluation and given as arbitrary luminance units.

[4] = Release of indicator dye from gelatine capsules coated with alginate/hydrophobin biopolymer
Source text: as §1
Filled and sealed capsules were submerged in a solution of 2% w/v alginate (E400) containing 200 μg/ml hydrophobin for 10 seconds. […] Crosslinking of alginate is accomplished by subsequent submerging in 0.1 M CaCl2. Subsequently, the capsules are dried at room temperature.
as §2
Hydrophobin SC is prepared and the gelatine capsules are filled with indicator dye as described above. Filled and sealed capsules are submerged in a solution of 2% w/v alginate (E400) containing 200 μg/ml hydrophobin.
Three hydrophobins are used to test if the modulation of the release kinetics of alginate coated gelatine capsules can be achieved with different hydrophobins. SC is prepared as described further above. Two additional hydrophobins are recombinantly produced in a similar procedure as described for SC. TT is from Talaromyces thermophilus and PO from Pleurotus ostreatus. Capsules are filled with indicator dye, sealed and immersed in a mixture of alginate and hydrophobin SC, TT or PO, respectively, as described in examples 1 and 2. As a control, an admixture of alginate and BSA is used. […]

Row | Molecule | resistance to dissolution of the coated tablet (integrity of tablets) [1] | dissolution of gelatine ([2]; dried, H2O, 0.1 N HCl or 0.1 N HCl with 0.4 U/ml pepsin, FIG. 5B) | dissolution of gelatine in an environment mimicking gastric juices ([2]; 0.1 N HCl, with or without 0.4 U/ml pepsin) | dissolution of the biopolymer gelatine in water ([2]; water) | release of dye from capsules (retention of dye within the capsule) [3] | release of dye from capsules (retention of dye within the capsule) ([3]; listed as SC3) | release of dye from capsules ([3]; sprayed gelatine capsules, 0.1 M HCl pH 1.0 with 0.4 U/ml pepsin, FIG. 1B) | resistance to dissolution of the coated tablet (integrity of tablets) ([1]; listed as SC3) | resistance of coated capsules / onset of dye release, acidic environment ([4]; alginate with 200 μg/ml protein, pH 1.0, FIG. 3A) | release characteristics of capsules (dye release) ([4]; alginate-coated capsules, 200 μg/ml protein, 0.1 M HCl pH 1.0 with 0.4 U/ml pepsin, FIG. 2B) | resistance of capsules to acidic conditions (dye release) ([4]; capsules submerged in 2% w/v alginate containing 200 μg/ml protein, pH 1.0, FIG. 2A)
1 | PO: class I hydrophobin from Pleurotus ostreatus, accession CAA76494, recombinant from E. coli (protein, UniProt O60048 22-113, looked up) Class I hydrophobin POH3: IPRTNPPAPTCTTGSLQCCNSVQAASNPVVGLLAGLLGIVLGPITGQVGLTCSPITVIGVGGTSCSAQTVCCNGNSFNGLIVVGCSPVNISL | superior to the class II hydrophobin TR |  |  |  |  |  |  |  |  |  | 
2 | SC: class I hydrophobin from Schizophyllum commune, accession P16933, recombinant his-tagged from E. coli (protein, UniProt P16933 25-136, looked up, His tag) Class I hydrophobin SC3: GGHPGTTTPPVTTTVTVTTPPSTTTIAAGGTCTTGSLSCCNQVQSASSSPVTALLGLLGIVLSDLNVLVGISCSPLTVIGVGGSGCSAQTVCCENTQFNGLINIGCTPINIL | superior to the class II hydrophobin TR | inhibits the dissolution of gelatine | reduced | strongly hampered | prolonged retention of dye within the capsule | resistant to an acidic environment | same advantageous release characteristics | delays the dissolution of the tablets significantly | increased resistance to stomach juices | essentially the same | comparable to that of gelatine capsules sprayed with hydrophobin
